The text below walks through data of patent publication US20220040304A1, “A COMPOSITION FOR CANCER CELL DEATH AND ITS USE” (Industry-University Cooperation Foundation Hanyang …, priority 2018, published 2022).

The nature of series [1]: Bioluminescence assay of purified proteins with Co-h substrate (BRET). It is filed as physicochemical. The conditions noted are these: protein 1 μM, Co-h 50 μM, 1×PBS. The protocol: In addition, 100 μL of buffer (1×PBS) containing the protein purified in Example 1 (final concentration: 1 μM) was dispensed into a 96-well plate (SPL Cell Culture Plate, 96 well (SPL, Cat #30196)), and bioluminescence assay was then performed using 50 μL of buffer (1×PBS) containing a Co-h substrate solution (final concentration: 50 μM), which is a wild-type 2-deoxy derivative. Bioluminescence intensity was immediately measured at a wavelength of 300 to 800 nm using a Thermo Scientific™ Varioskan™ Flash Multimode Reader.
(In general: BRET reads energy transfer from a luciferase to a nearby fluorophore.)

The nature of series [2]: Stability of bioluminescence intensity in PBS or normal mouse serum. To be noted: buffer (1×PBS) or normal mouse serum, 37° C., protein 10 μM, Co-h 150 μM.
Description: Bioluminescence assay was performed by reaction of 30 μL of buffer (1×PBS) containing the purified protein RLuc8.6 or RLuc8.6-KR-LP protein, or RLuc8 or RLuc8-MS-LP protein (final concentration: 10 μM) and 0.8 μL of a Co-h substrate solution (final concentration: 150 μM) in an incubator (37° C.). 30 μL of normal mouse serum (Jackson ImmunoResearch, USA) containing the purified protein (final concentration: 10 μM) and 0.8 μL of a Co-h substrate solution (final concentration: 150 μM) were reacted in an incubator (37° C.). Bioluminescence intensity was immediately measured using GLOMAX.

Numbering of substitutions follows the chain as printed.

B1: RLuc8.6: third protein, mutant Renilla luciferase 8.6 providing light, 38 kDa (protein)
chain: MASKVYDPEQRKRMITGPQWWARCKQMNVLDSFINYYDSEKHAENAVIFLHGNATSSYLWRHVVPHIEPVARCIIPDLIGMGKSGKSGNGSYRLLDHYKYLTAWFELLNLPKKIIFVGHDWGSALAFHYAYEHQDRIKAIVHMESVVDVIESWMGWPDIEEELALIKSEEGEKMVLENNFFVETLLPSKIMRKLEPEEFAAYLEPFKEKGEVRRPTLSWPREIPLVKGGKPDVVQIVRNYNAYLRASDDLPKLFIESDPGFFYNAIVEGAKKFPNTEFVKVKGLHFLQEDAPDEMGKYIKSFVERVLKNEQ
modifications: RLuc8.6
notes: third protein, mutant Renilla luciferase 8.6 providing light, 38 kDa
On to B1, for which the “emission in bioluminescence assay (BRET)” value in series [1] was 535 nm. The “luminescence intensity with increasing reaction time (stability)” value in series [2] is given as “constant”.

B2: RLuc8: third protein, mutant Renilla luciferase 8 providing light, 38 kDa (protein)
chain: B1 chain with S123A, M154D, G155E, E162D, L163I, L185V, Y263S
modifications: RLuc8
With B2, the “emission in bioluminescence assay (BRET)” value in series [1] worked out at 480 nm.
